Measurements taken from US20210079088A1 (published 2021).

T1: soluble human IL-4Rα (sIL-4Rα; PEPRO TECH, Catalog Number: 200-04R) (human, UniProt P24394 26-232)
T1 construct: Bought protein; also called shIL-4Rα; soluble hIL-4 Rα
T1 sequence: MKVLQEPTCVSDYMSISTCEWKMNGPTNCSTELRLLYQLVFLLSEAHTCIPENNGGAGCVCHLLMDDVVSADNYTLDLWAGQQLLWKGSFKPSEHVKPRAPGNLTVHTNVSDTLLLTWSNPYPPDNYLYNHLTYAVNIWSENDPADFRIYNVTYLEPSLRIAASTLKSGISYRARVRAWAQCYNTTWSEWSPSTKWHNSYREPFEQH

B1: L1000H1007 (antibody, V domains shown)
VH: EVQLVQSGGGLVHPGGSLRLSCAGSGFTFSRNAMFWVRQAPGKGLEWVSGIGTGGATSYADSVKGRFTISRDNAKNSLYLQMNSLRAEDMAVYYCARGRYYFDYWGQGTLVTVSS
VL: not shown
B2: L1000H1001 (antibody, V domains shown)
VH: EVQLVESGGGLVQPGGSLRLSCAASGFTFSRNAMFWVRQAPGKGLEWVSGIGTGGATSYADSVKGRFTISRDNAKNSLYLQMNSLRAEDTAVYYCARGRYYFPWWGQGTLVTVSS
VL: not shown
B3: L1000H1008 (antibody, V domains shown)
VH: EVQLVQSGGGLVHPGGSLRLSCAGSGFTFSRNAMFWVRQAPGKGLEWVSGIGTGGATNYADSVKGRFTISRDNAKNSLYLQMNSLRAEDTAVYYCARGRYYFDYWGQGTLVTVSS
VL: not shown
B4: L1000H1009 (antibody, V domains shown)
VH: EVQLVESGGGLVHPGGSLRLSCAGSGFTFSRNAMFWVRQAPGKGLEWVSGIGTGGATNYADSVKGRFTISRDNAKNSLYLQMNSLRAEDMAVYYCARGRYYFDYWGQGTLVTVSS
VL: not shown
B5: L1000H1010 (antibody, V domains shown)
VH: EVQLVQSGGGLVQPGGSLRLSCAGSGFTFSRNAMFWVRQAPGKGLEWVSGIGTGGATNYADSVKGRFTISRDNAKNSLYLQMNSLRAEDMAVYYCARGRYYFDYWGQGTLVTVSS
VL: not shown
B6: L1000H1012 (antibody, V domains shown)
VH: EVQLVQSGGGLVHPGGSLRLSCAGSGFTFSRNAMFWVRQAPGKGLEWVSGIGTGGATSYADSVKGRFTISRDNAKNSLYLQMNSLRAEDTAVYYCARGRYYFDYWGQGTLVTVSS
VL: not shown
B7: L1000H1013 (antibody, V domains shown)
VH: EVQLVESGGGLVHPGGSLRLSCAASGFTFSRNAMFWVRQAPGKGLEWVSGIGTGGATNYADSVKGRFTISRDNAKNSLYLQMNSLRAEDMAVYYCARGRYYFDYWGQGTLVTVSS
VL: not shown
B8: L1000H1014 (antibody, V domains shown)
VH: EVQLVQSGGGLVQPGGSLRLSCAASGFTFSRNAMFWVRQAPGKGLEWVSGIGTGGATNYADSVKGRFTISRDNAKNSLYLQMNSLRAEDMAVYYCARGRYYFDYWGQGTLVTVSS
VL: not shown
B9: L1000H1015 (antibody, V domains shown)
VH: EVQLVESGGGLVQPGGSLRLSCAGSGFTFSRNAMFWVRQAPGKGLEWVSGIGTGGATNYADSVKGRFTISRDNAKNSLYLQMNSLRAEDMAVYYCARGRYYFDYWGQGTLVTVSS
VL: not shown
B10: L1000H1016 (antibody, V domains shown)
VH: EVQLVQSGGGLVHPGGSLRLSCAGSGFTFSRNAMFWVRQAPGKGLEWVSGIGTGGATNYADSVKGRFTISRDNAKNSLYLQMNSLRAEDMAVYYCARGRYYFPWWGQGTLVTVSS
VL: not shown
B11: L1000H1020 (antibody, V domains shown)
VH: EVQLVQSGGGLVHPGGSLRLSCAGSGFTFSRNAMFWVRQAPGKGLEWVSGIGTGGATSYADSVKGRFTISRDNAKNSLYLQMNSLRAEDMAVYYCARGRYYFPWWGQGTLVTVSS
VL: not shown
B12: L1000H1021 (antibody, V domains shown)
VH: EVQLVQSGGGLVHPGGSLRLSCAGSGFTFSRNAMFWVRQAPGKGLEWVSGIGTGGATNYADSVKGRFTISRDNAKNSLYLQMNSLRAEDTAVYYCARGRYYFPWWGQGTLVTVSS
VL: not shown
B13: L1000H1022 (antibody, V domains shown)
VH: EVQLVQSGGGLVHPGGSLRLSCAGSGFTFSRNAMFWVRQAPGKGLEWVSGIGTGGATSYADSVKGRFTISRDNAKNSLYLQMNSLRAEDTAVYYCARGRYYFPWWGQGTLVTVSS
VL: not shown
B14: L1000H1023 (antibody, V domains shown)
VH: EVQLVESGGGLVHPGGSLRLSCAGSGFTFSRNAMFWVRQAPGKGLEWVSGIGTGGATSYADSVKGRFTISRDNAKNSLYLQMNSLRAEDTAVYYCARGRYYFPWWGQGTLVTVSS
VL: not shown
B15: L1000H1024 (antibody, V domains shown)
VH: EVQLVQSGGGLVQPGGSLRLSCAGSGFTFSRNAMFWVRQAPGKGLEWVSGIGTGGATSYADSVKGRFTISRDNAKNSLYLQMNSLRAEDTAVYYCARGRYYFPWWGQGTLVTVSS
VL: not shown
B16: L1000H1025 (antibody, V domains shown)
VH: EVQLVQSGGGLVHPGGSLRLSCAASGFTFSRNAMFWVRQAPGKGLEWVSGIGTGGATSYADSVKGRFTISRDNAKNSLYLQMNSLRAEDTAVYYCARGRYYFPWWGQGTLVTVSS
VL: not shown
B17: L1000H1026 (antibody, V domains shown)
VH: EVQLVESGGGLVQPGGSLRLSCAGSGFTFSRNAMFWVRQAPGKGLEWVSGIGTGGATSYADSVKGRFTISRDNAKNSLYLQMNSLRAEDTAVYYCARGRYYFPWWGQGTLVTVSS
VL: not shown
B18: L1000H1027 (antibody, V domains shown)
VH: EVQLVESGGGLVHPGGSLRLSCAASGFTFSRNAMFWVRQAPGKGLEWVSGIGTGGATSYADSVKGRFTISRDNAKNSLYLQMNSLRAEDTAVYYCARGRYYFPWWGQGTLVTVSS
VL: not shown
B19: L1000H1028 (antibody, V domains shown)
VH: EVQLVQSGGGLVQPGGSLRLSCAASGFTFSRNAMFWVRQAPGKGLEWVSGIGTGGATSYADSVKGRFTISRDNAKNSLYLQMNSLRAEDTAVYYCARGRYYFPWWGQGTLVTVSS
VL: not shown
B20: L1000H1029 (antibody, V domains shown)
VH: EVQLVESGGGLVQPGGSLRLSCAASGFTFSRNAMFWVRQAPGKGLEWVSGIGTGGATSYADSVKGRFTISRDNAKNSLYLQMNSLRAEDMAVYYCARGRYYFPWWGQGTLVTVSS
VL: not shown
B21: L1000H1030 (antibody, V domains shown)
VH: EVQLVESGGGLVQPGGSLRLSCAASGFTFSRNAMFWVRQAPGKGLEWVSGIGTGGATNYADSVKGRFTISRDNAKNSLYLQMNSLRAEDTAVYYCARGRYYFPWWGQGTLVTVSS
VL: not shown
B22: L1000H1031 (antibody, V domains shown)
VH: EVQLVESGGGLVQPGGSLRLSCAASGFTFSRNAMFWVRQAPGKGLEWVSGIGTGGATSYADSVKGRFTISRDNAKNSLYLQMNSLRAEDTAVYYCARGRYYFDYWGQGTLVTVSS
VL: not shown
B23: L1000H1032 (antibody, V domains shown)
VH: EVQLVESGGGLVQPGGSLRLSCAASGFTFSRNAMFWVRQAPGKGLEWVSGIGTGGATNYADSVKGRFTISRDNAKNSLYLQMNSLRAEDMAVYYCARGRYYFPWWGQGTLVTVSS
VL: not shown
B24: L1000H1035 (antibody, V domains shown)
VH: EVQLVQSGGGLVHPGGSLRLSCAGSGFTFSRNAMHWVRQAPGKGLEWVSGIGTGGATNYADSVKGRFTISRDNAKNSLYLQMNSLRAEDMAVYYCARGRYYFDYWGQGTLVTVSS
VL: not shown
B25: L1000H1036 (antibody, V domains shown)
VH: EVQLVQSGGGLVHPGGSLRLSCAGSGFTFSRNAMFWVRQAPGEGLEWVSGIGTGGATNYADSVKGRFTISRDNAKNSLYLQMNSLRAEDMAVYYCARGRYYFDYWGQGTLVTVSS
VL: not shown
B26: L1000H1037 (antibody, V domains shown)
VH: EVQLVQSGGGLVHPGGSLRLSCAGSGFTFSRNAMFWVRQAPGKGLEWVSGIGTGGATNYADSVKGRFTISRDEAKNSLYLQMNSLRAEDMAVYYCARGRYYFDYWGQGTLVTVSS
VL: not shown
B27: L1001H1000 (antibody, V domains shown)
VH: EVQLVQSGGGLVHPGGSLRLSCAGSGFTFSRNAMFWVRQAPGKGLEWVSGIGTGGATNYADSVKGRFTISRDNAKNSLYLQMNSLRAEDMAVYYCARGRYYFDYWGQGTLVTVSS
VL: EIVLTQSPGTLSLSPGERATLSCRASQSVSNSYLAWYQQKPGQAPRLLIYGASSRAPGIPDRFSGSGSGTDFTLTISRLEPEDFAVYYCQQYDHSAGWTFGQGTKVEIK

biological target: T1, soluble human IL-4Rα (sIL-4Rα; PEPRO …); assay: ELISA, coated sIL-4Rα, culture supernatant
Description: Sample to be tested: For each antibody of the present invention, 10 μl and 2 μl of the culture supernatant of Expi293 cells expressing the antibody after transient transfection (the medium was Expi293 Expression Medium, Invitrogen, Catalog Number: A1435102; suspension culture was performed for 4 days at 100 rpm in a 8% CO2 incubator) were respectively added to 990 μl and 998 μl of PBS to prepare antibody samples to be tested of 1:100 and 1:500 dilutions.
100 μl of 100 μg/ml sIL-4Rα solution was added to 9.90 ml of PBS, mixed up and down, and then an antigen coating buffer of 1.0 μg/ml was obtained. The prepared antigen coating buffer was added to a 96-well ELISA plate (Corning) with a volume of 100 μl per well. The 96-well ELISA plate was incubated overnight in a refrigerator at 4° C. On the next day, the solution therein was discarded, and PBS containing 2% BSA was added to the 96-well ELISA plate row by row with a volume of 300 μl per well. The 96-well ELISA plate was incubated for 2 hours in a refrigerator at 4° C. Then the PBS containing 2% BSA was discarded and the plate was washed 3 times with PBST. Diluted antibodies to be tested were sequentially added to the corresponding wells, while the normal cell culture supernatants, as negative control samples, were added too. Three duplicate wells were made for each sample with a volume of 100 μl per well. The ELISA plate was wrapped with preservative film (or covered) and incubated for 1 h at 10° C. in a constant temperature incubator. Subsequently, the 96-well ELISA plate was taken out, and the solution therein was discarded. After washing with PBST for 3 times, TMB solution (Solarbio, Catalog Number: PR1200) was added to the 96-well ELISA plate row by row with a volume of 100 μl per well. The 96-well ELISA plate was placed at room temperature for 5 minutes, and 2 M H2SO4 solution was added in immediately to terminate the reaction. The 96-well ELISA plate was placed in flexstation 3 (Molecular Devices), the values of OD450 were read, and the data were collected, calculated and analyzed. Results were expressed relative to the affinity of control antibody 1.

In order of falling “OD450/OD450 Control antibody 1” value:
1. B27  1.56 ratio to control antibody 1
2. B22  1.14 ratio to control antibody 1
3. B8  1.06 ratio to control antibody 1
4. B20  0.8 ratio to control antibody 1
5. B2  0.7 ratio to control antibody 1
6. B9  0.65 ratio to control antibody 1
7. B14  0.63 ratio to control antibody 1
8. B10  0.61 ratio to control antibody 1
9. B4  0.56 ratio to control antibody 1
10. B23  0.53 ratio to control antibody 1
11. B18  0.44 ratio to control antibody 1
12. B7  0.38 ratio to control antibody 1
13. B1  0.37 ratio to control antibody 1
14. B12  0.35 ratio to control antibody 1
15. B19  0.33 ratio to control antibody 1
16. B15  0.26 ratio to control antibody 1
17. B11  0.23 ratio to control antibody 1
18. B24  0.22 ratio to control antibody 1
19. B3  0.21 ratio to control antibody 1
20. B16  0.21 ratio to control antibody 1
21. B21  0.2 ratio to control antibody 1
22. B6  0.18 ratio to control antibody 1
23. B13  0.18 ratio to control antibody 1
24. B5  0.11 ratio to control antibody 1
25. B17  0.11 ratio to control antibody 1
26. B25  0.1 ratio to control antibody 1
27. B26  -0.01 ratio to control antibody 1
